The source of these data is US20090029864A1.

The test has as its target T1, His-tagged Stx 2B-subunit (wild type) (enterohemorrhagic Escherichia coli O157:H7), P09386.
T1 chain: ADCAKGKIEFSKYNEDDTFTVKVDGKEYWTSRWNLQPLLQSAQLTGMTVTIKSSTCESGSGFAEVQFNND

MAKRRNPRRA (modifications not checked) [(Met-Ala-KRRNPRR-Ala-AHA-)4-3Lys] gave an RUmax of 1290 AU.
Molecule MAFRRNRRNA (modifications not checked) [(Met-Ala-FRRNRRN-Ala-AHA-)4-3Lys] gave an RUmax of 1490 AU.
Consider MAPPPRRRRA (modifications not checked) [(Met-Ala-PPPRRRR-Ala-AHA-)4-3Lys], for which the RUmax stood at 1250 AU.
Turning to MAPPRRNRRA (modifications not checked) [(Met-Ala-PPRRNRR-Ala-AHA-)4-3Lys], the RUmax came out at 1350 AU.
